Assay [1] has as its target CCR5, P51681. In words: competition SPA, displacement of 125I-MIP-1α from CCR5 CHO membranes. The settings on record: remark: other sources report otherwise. A general note: In a radioligand displacement assay an active substance lowers the binding of a labelled ligand.
The target of assay [2] is CCR5, P51681. In words: competition SPA, displacement of 125I-MIP-1α from CCR5 CHO membranes (FIG. 2). The settings on record: remark: other sources report otherwise.
Sequence of CCR5, P51681 (P51681 whole entry): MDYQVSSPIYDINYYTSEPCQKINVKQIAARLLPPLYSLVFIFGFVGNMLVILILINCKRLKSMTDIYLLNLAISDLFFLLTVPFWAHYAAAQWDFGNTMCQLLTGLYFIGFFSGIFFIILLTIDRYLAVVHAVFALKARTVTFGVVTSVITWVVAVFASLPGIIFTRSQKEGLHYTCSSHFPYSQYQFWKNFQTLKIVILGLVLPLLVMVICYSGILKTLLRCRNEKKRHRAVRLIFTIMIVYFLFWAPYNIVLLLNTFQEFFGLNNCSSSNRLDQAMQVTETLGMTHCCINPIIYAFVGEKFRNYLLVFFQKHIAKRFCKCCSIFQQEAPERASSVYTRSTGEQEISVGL

B1: PEG-2 kDa-RANTES, P13501 24-91 (ligand)
chain: {mPEG‑ButyrALD 2 kDa}-SPYSSDTTPCCFAYIARPLPRAHIKEYFYTSGKCSNPAVVFVTRKNRQVCANPEKKWVREYINSLEMS
Consider B1, for which the IC50 stood at 10.6 nM in assay [1] and 3.1 nM in assay [2].

B2: Mature wildtype (wt) human RANTES, P13501 24-91 (ligand)
chain: SPYSSDTTPCCFAYIARPLPRAHIKEYFYTSGKCSNPAVVFVTRKNRQVCANPEKKWVREYINSLEMS
With B2, the results for the IC50 in assay [1] and in assay [2] were 1.6 nM and 1.3 nM, respectively.

B3: PEG-5 kDa-RANTES, P13501 24-91 (ligand)
chain: {mPEG‑ButyrALD 5 kDa}-SPYSSDTTPCCFAYIARPLPRAHIKEYFYTSGKCSNPAVVFVTRKNRQVCANPEKKWVREYINSLEMS
Consider B3, for which the IC50 in assay [1] worked out at 2.8 nM; in assay [2], 2.2 nM.

As a reminder, the IC50 is the midpoint of a concentration-inhibition curve. Lower therefore signals inhibition by little substance.
